Measurements published in article PMC5336696, “Structural basis for potency differences between GDF8 and GDF11” (BMC Biology, 2017).

T1: mature growth/differentiation factor 8 (GDF8) (human) (UniProt O14793)
T1 sequence: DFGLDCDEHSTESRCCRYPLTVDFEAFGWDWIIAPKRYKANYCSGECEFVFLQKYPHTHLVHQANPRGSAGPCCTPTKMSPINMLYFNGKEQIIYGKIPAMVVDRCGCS

T2: mature growth/differentiation factor 11 (GDF11) (human) (UniProt O95390)
T2 sequence: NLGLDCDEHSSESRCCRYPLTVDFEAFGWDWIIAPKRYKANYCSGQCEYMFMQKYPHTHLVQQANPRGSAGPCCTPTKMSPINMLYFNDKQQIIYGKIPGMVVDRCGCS

T3: mature growth/differentiation factor 11 (GDF11) (human, UniProt O95390 299-407)
T3 sequence (looked up): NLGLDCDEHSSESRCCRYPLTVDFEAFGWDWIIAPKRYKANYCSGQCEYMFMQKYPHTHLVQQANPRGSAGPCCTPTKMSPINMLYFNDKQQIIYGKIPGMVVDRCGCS

T4: mature growth/differentiation factor 8 (GDF8) (human, UniProt O14793 267-375)
T4 sequence (looked up): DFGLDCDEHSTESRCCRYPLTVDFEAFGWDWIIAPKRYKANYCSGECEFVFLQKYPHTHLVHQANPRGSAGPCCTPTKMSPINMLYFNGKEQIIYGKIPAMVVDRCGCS


Tests used:
[1] = target: T1, mature growth/differentiation factor 8 (GDF8) (human)
[2] = target: T2, mature growth/differentiation factor 11 (GDF11) (human)
[3] = target: T3, mature growth/differentiation factor 11 …; assay: cell-based or functional assay
[4] = target: T3, mature growth/differentiation factor 11 …; assay: cell-based or functional assay; remark: listed apart in the source
[5] = target: T4, mature growth/differentiation factor 8 …; assay: cell-based or functional assay
[6] = target: T3, mature growth/differentiation factor 11 …; assay: cell-based or functional assay; remark: listed apart in the source
[7] = target: T4, mature growth/differentiation factor 8 …; assay: cell-based or functional assay; remark: listed apart in the source

IC50 of inhibition of 0.62 nM GDF8, (CAGA)12 luciferase reporter in HEK293 cells [1] [nM]	IC50 of inhibition of 0.62 nM GDF11, (CAGA)12 luciferase reporter in HEK293 cells [2] [nM]	IC50 of inhibition of 0.62 nM GDF11 by the soluble receptor, (CAGA)12 luciferase reporter in HEK293 cells [4] [nM]	IC50 of inhibition of 0.62 nM GDF8 by the soluble receptor, (CAGA)12 luciferase reporter in HEK293 cells [5] [nM]	Binder	further results
4.1	18.3			GASP2 (natural protein) AGLLPGLGSHPGVCPNQLSPNLWVDAQSTCERECSRDQDCAAAEKCCINVCGLHSCVAARFPGSPAAPTTAASCEGFVCPQQGSDCDIWDGQPVCRCRDRCEKEPSFTCASDGLTYYNRCYMDAEACLRGLHLHIVPCKHVLSWPPSSPGPPETTARPTPGAAPVPPALYSSPSPQAVQVGGTASLHCDVSGRPPPAVTWEKQSHQRENLIMRPDQMYGNVVVTSIGQLVLYNARPEDAGLYTCTARNAAGLLRADFPLSVVQREPARDAAPSIPAPAECLPDVQACTGPTSPHLVLWHYDPQRGGCMTFPARGCDGAARGFETYEACQQACARGPGDACVLPAVQGPCRGWEPRWAYSPLLQQCHPFVYGGCEGNGNNFHSRESCEDACPVPRTPPCRACRLRSKLALSLCRSDFAIVGRLTEVLEEPEAAGGIARVALEDVLKDDKMGLKFLGTKYLEVTLSGMDWACPCPNMTAGDGPLVIMGEVRDGVAVLDAGSYVRAASEKRVKKILELLEKQACELLNRFQD	
0.2	0.3			growth/differentiation factor-associated serum protein 1 (GASP1) (natural protein) LPPIRYSHAGICPNDMNPNLWVDAQSTCRRECETDQECETYEKCCPNVCGTKSCVAARYMDVKGKKGPVGMPKEATCDHFMCLQQGSECDIWDGQPVCKCKDRCEKEPSFTCASDGLTYYNRCYMDAEACSKGITLAVVTCRYHFTWPNTSPPPPETTMHPTTASPETPELDMAAPALLNNPVHQSVTMGETVSFLCDVVGRPRPEITWEKQLEDRENVVMRPNHVRGNVVVTNIAQLVIYNAQLQDAGIYTCTARNVAGVLRADFPLSVVRGHQAAATSESSPNGTAFPAAECLKPPDSEDCGEEQTRWHFDAQANNCLTFTFGHCHRNLNHFETYEACMLACMSGPLAACSLPALQGPCKAYAPRWAYNSQTGQCQSFVYGGCEGNGNNFESREACEESCPFPRGNQRCRACKPRQKLVTSFCRSDFVILGRVSELTEEPDSGRALVTVDEVLKDEKMGLKFLGQEPLEVTLLHVDWACPCPNVTVSEMPLIIMGEVDGGMAMLRPDSFVGASSARRVRKLREVMHKKTCDVLKEFLGLH	
1.2	4			follistatin-like 3 (FSTL3) (natural protein) MGSGNPAPGGVCWLQQGQEATCSLVLQTDVTRAECCASGNIDTAWSNLTHPGNKINLLGFLGLVHCLPCKDSCDGVECGPGKACRMLGGRPRCECAPDCSGLPARLQVCGSDGATYRDECELRAARCRGHPDLSVMYRGRCRKSCEHVVCPRPQSCVVDQTGSAHCVVCRAAPCPVPSSPGQELCGNNNVTYISSCHMRQATCFLGRSIGVRHAGSCAGTPEEPPGGESAEEEENFV	
		13	12.4	ActRIIB extracellular domain (ActRIIB-ECD) (receptor, UniProt P38445 19-137, looked up) SGRGEAETRECIYYNANWELERTNQSGLERCEGEQDKRLHCYASWRNSSGTIELVKKGCWLDDFNCYDRQECVATEENPQVYFCCCEGNFCNERFTHLPEPGGPEVTYEPPPTAPTLLT	IC50 of inhibition of 0.62 nM GDF11 by the soluble receptor, (CAGA)12 luciferase reporter in HEK293 cells (value of the text) [3]: 14 nM
		10.3	3	Fc-ActRIIB-ECD (Fc fusion, UniProt Q13705 19-137, looked up) SGRGEAETRECIYYNANWELERTNQSGLERCEGEQDKRLHCYASWRNSSGTIELVKKGCWLDDFNCYDRQECVATEENPQVYFCCCEGNFCNERFTHLPEAGGPEVTYEPPPTAPTLLT	
				follistatin 288 (FS288) (natural protein, UniProt P19883-2 30-317, looked up) GNCWLRQAKNGRCQVLYKTELSKEECCSTGRLSTSWTEEDVNDNTLFKWMIFNGGAPNCIPCKETCENVDCGPGKKCRMNKKNKPRCVCAPDCSNITWKGPVCGLDGKTYRNECALLKARCKEQPELEVQYQGRCKKTCRDVFCPGSSTCVVDQTNNAYCVTCNRICPEPASSEQYLCGNDGVTYSSACHLRKATCLLGRSIGLAYEGKCIKAKSCEDIQCTGGKKCLWDFKVGRGRCSLCDELCPDSKSDEPVCASDNATYASECAMKEAACSSGVLLEVKHSGSCN	IC50 of inhibition of 0.62 nM GDF11, (CAGA)12 luciferase reporter in HEK293 cells [6]: 0.3 nM; IC50 of inhibition of 0.62 nM GDF8, (CAGA)12 luciferase reporter in HEK293 cells [7]: 0.2 nM
